According to article PMC4740771, “Nucleotide-dependent assembly of the peroxisomal receptor export complex” (Scientific Reports, 2016):
Values belong to the molecule of their own block, whether it stands above or below them.

How the values were obtained:
[1] = biological target: Pex15p(1-315)His (GST removed by thrombin) (S. cerevisiae) (UniProt Q08215); assay: SEC; 700 kDa fractions of the Pex1/6p/Pex15p complexes pooled, kept 72 h on ice (4 °C), then size exclusion again; anti-His immunoblot, signal intensities
[2] = biological target: Pex15p(1-315)His (GST removed by thrombin) (S. cerevisiae) (UniProt Q08215); assay: SEC; Pex1/6p/Pex15p complex isolated on GSH-agarose, released by thrombin (GST left on the column), Superose 6 (small-scale and preparative) in presence of ATP; anti-His immunoblot or Coomassie, signal intensities by ImageJ
[3] = biological target: Pex15p(1-315)His (GST removed by thrombin) (S. cerevisiae) (UniProt Q08215); assay: SEC; as a8 but 2.5 mM ATPγS added during thrombin incubation of the wild-type complex
[4] = biological target: GST-Pex15p(1-315)His (S. cerevisiae) (UniProt Q08215); assay: pull-down; GST-Pex15p(1-315)His incubated with purified proteins, loaded on GSH-agarose, eluted with glutathione; 5 mM ATP; Coomassie and immunoblot, signal intensities of load and eluate
[5] = biological target: the molecule itself; assay: SEC; second gel filtration of the purified heterohexameric complexes after incubation at 37 °C
[6] = biological target: T1, HisPex1p released from HisPex1pGST by thrombin (S. cerevisiae, UniProt P24004 1-1043); assay: SEC; Pex1/6p/Pex15p complex isolated on GSH-agarose, released by thrombin (GST left on the column), Superose 6 (small-scale and preparative) in presence of ATP; anti-His immunoblot or Coomassie, signal intensities by ImageJ; conditions: both partners purified
T1 construct: Pex1p, type II AAA-ATPase peroxin of yeast; The GST tag held the complex on GSH-agarose during purification and stayed on the column after thrombin cleavage; source: E. coli Tuner (DE3), co-purified with HisPex6p (NiNTA-agarose, GSH-agarose, thrombin release); not shown: His6, N-terminal, kept; GST, C-terminal, cleaved
T1 sequence (looked up): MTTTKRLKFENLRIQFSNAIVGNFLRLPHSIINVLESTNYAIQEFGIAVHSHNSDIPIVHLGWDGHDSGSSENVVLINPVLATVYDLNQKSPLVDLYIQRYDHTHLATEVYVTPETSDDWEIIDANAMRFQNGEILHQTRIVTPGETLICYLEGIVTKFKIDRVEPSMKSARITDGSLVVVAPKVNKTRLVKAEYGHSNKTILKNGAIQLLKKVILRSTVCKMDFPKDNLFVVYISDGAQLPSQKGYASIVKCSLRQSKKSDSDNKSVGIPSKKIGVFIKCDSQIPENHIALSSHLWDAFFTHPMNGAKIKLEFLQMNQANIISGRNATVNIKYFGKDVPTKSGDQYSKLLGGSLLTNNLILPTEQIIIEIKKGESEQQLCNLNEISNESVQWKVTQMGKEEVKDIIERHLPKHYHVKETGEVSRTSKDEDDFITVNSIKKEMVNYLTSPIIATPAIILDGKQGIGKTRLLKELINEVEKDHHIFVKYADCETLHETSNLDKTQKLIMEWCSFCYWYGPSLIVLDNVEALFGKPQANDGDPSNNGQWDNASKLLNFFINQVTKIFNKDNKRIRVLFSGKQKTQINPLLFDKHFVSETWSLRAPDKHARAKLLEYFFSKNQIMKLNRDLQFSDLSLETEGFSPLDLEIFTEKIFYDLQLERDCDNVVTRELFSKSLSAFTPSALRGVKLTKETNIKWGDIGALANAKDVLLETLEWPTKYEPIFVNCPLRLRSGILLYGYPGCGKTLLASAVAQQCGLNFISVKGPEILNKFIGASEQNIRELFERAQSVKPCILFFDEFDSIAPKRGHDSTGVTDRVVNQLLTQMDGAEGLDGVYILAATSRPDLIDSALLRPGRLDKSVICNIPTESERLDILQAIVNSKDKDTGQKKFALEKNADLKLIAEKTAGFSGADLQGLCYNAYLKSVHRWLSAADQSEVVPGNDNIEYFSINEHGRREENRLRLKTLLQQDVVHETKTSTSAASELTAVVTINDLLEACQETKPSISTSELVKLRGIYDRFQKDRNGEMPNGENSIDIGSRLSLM

[7] = biological target: T2, Pex15p(1-315)His (GST removed by thrombin) (S. cerevisiae, UniProt Q08215 1-315); assay: as above; conditions: both partners purified
T2 construct: Pex15p of S. cerevisiae, cytosolic part, residues 1 to 315; Same construct as m10 after thrombin cleavage; detected by anti-His antibodies; Printed mass 36 kDa; alone it eluted at about 100 kDa; also called Pex15pHis; source: E. coli BL21 (DE3), purified (Glutathione Agarose 4B), released from GSH-agarose by thrombin; not shown: GST, N-terminal, cleaved; His6, C-terminal, kept
T2 sequence (looked up): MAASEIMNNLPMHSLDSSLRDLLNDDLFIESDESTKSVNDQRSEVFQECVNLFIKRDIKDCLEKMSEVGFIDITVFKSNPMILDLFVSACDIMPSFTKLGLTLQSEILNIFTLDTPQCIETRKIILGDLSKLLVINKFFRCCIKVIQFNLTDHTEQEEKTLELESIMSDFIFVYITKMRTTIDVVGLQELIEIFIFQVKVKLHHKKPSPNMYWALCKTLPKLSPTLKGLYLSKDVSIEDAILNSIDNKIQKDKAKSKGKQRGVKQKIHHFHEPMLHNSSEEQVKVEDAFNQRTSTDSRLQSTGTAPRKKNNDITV

Molecule: Pex1/6p-complex (recombinant heterohexameric AAA-complex), P24004 1-1043; P33760 1-1030
percent of Pex15p still bound after 72 h [3]: 20%
percent of Pex15p still bound after 72 h [1]: < 10%
fold binding against single Pex6p [4]: 3 fold
stoichiometry N (Pex15p per Pex1p of the complex) [2]: 0.9
stoichiometry N ([2]; scale: Pex15p per heterohexameric Pex1/6p complex): 3

B1: HisPex1p(D797N) released from its GST fusion (natural protein, S. cerevisiae, UniProt P24004 1-1043, looked up)
chain: MTTTKRLKFENLRIQFSNAIVGNFLRLPHSIINVLESTNYAIQEFGIAVHSHNSDIPIVHLGWDGHDSGSSENVVLINPVLATVYDLNQKSPLVDLYIQRYDHTHLATEVYVTPETSDDWEIIDANAMRFQNGEILHQTRIVTPGETLICYLEGIVTKFKIDRVEPSMKSARITDGSLVVVAPKVNKTRLVKAEYGHSNKTILKNGAIQLLKKVILRSTVCKMDFPKDNLFVVYISDGAQLPSQKGYASIVKCSLRQSKKSDSDNKSVGIPSKKIGVFIKCDSQIPENHIALSSHLWDAFFTHPMNGAKIKLEFLQMNQANIISGRNATVNIKYFGKDVPTKSGDQYSKLLGGSLLTNNLILPTEQIIIEIKKGESEQQLCNLNEISNESVQWKVTQMGKEEVKDIIERHLPKHYHVKETGEVSRTSKDEDDFITVNSIKKEMVNYLTSPIIATPAIILDGKQGIGKTRLLKELINEVEKDHHIFVKYADCETLHETSNLDKTQKLIMEWCSFCYWYGPSLIVLDNVEALFGKPQANDGDPSNNGQWDNASKLLNFFINQVTKIFNKDNKRIRVLFSGKQKTQINPLLFDKHFVSETWSLRAPDKHARAKLLEYFFSKNQIMKLNRDLQFSDLSLETEGFSPLDLEIFTEKIFYDLQLERDCDNVVTRELFSKSLSAFTPSALRGVKLTKETNIKWGDIGALANAKDVLLETLEWPTKYEPIFVNCPLRLRSGILLYGYPGCGKTLLASAVAQQCGLNFISVKGPEILNKFIGASEQNIRELFERAQSVKPCILFFNEFDSIAPKRGHDSTGVTDRVVNQLLTQMDGAEGLDGVYILAATSRPDLIDSALLRPGRLDKSVICNIPTESERLDILQAIVNSKDKDTGQKKFALEKNADLKLIAEKTAGFSGADLQGLCYNAYLKSVHRWLSAADQSEVVPGNDNIEYFSINEHGRREENRLRLKTLLQQDVVHETKTSTSAASELTAVVTINDLLEACQETKPSISTSELVKLRGIYDRFQKDRNGEMPNGENSIDIGSRLSLM
notes: Pex1p of yeast with a mutation of the aspartate of the Walker B motif of the D2 domain; also called Pex1WB^D797N; Pex1pWB^D797N; not shown: His6, N-terminal, kept; GST, C-terminal, cleaved
stoichiometry N [5]: 3

More lines, now with the values ahead:

percent of Pex15p still bound after 72 h [1]: 40%
stoichiometry N (Pex15p per Pex1p of the complex) [2]: 0.9
Molecule: Pex1/6pWB complex (wild-type Pex1p with Pex6p E832Q), P24004 1-1043; P33760 1-1030

stoichiometry N [6]: 0.9 Pex6p per Pex1p
stoichiometry N [7]: 1 Pex15p per Pex6p
B2: HisPex6p(E832Q) (natural protein, S. cerevisiae, UniProt P33760 1-1030, looked up)
chain: MKASLTFSLSGIYAPCSISRDIYLEYGDKKAECLYGTIRLPQYGPGCTPGKIVHCVLDDSLPFCSIVVPSKLFGFMPTQPTMDFCYFEPILDNVVPVLDSVTFLINEQLYSKLMDLPQEMQQIQFLHYKYNINSMETVVHSRDILTSGLCQILNCSPFPQGLVDFTETQLILVNDTEQKLSALKYANEDEEYALPKIGTNSALSIDLESLPCTISRDLLRPAPHINDDNSIYAFTDAETLLRLDVTSGSFITVSNMGCVRLVKLFVLLLPNGFKKRTIYAPPKIIASFPDCSVVTISKSNIGHTDIPIANQVFISRVGGWLQSQKCFQNIILTTLKKFFSESKRILCQNDLIPIAFDSSMADLNIAEENDESDDEDELGQYYKNDSLVWFFVTSAELDCFSKDNSHFIIDPNRTKLITTNITNRRPLPLSRSNLQRYYGFAETFYYDLHIFPYVRQLVNILETSFNCSQRGITLNASVLLHSTTNNVGKATMVRFASKYLGIHLLEIDCLSLTSNSRQLDSTSKIIGYIRAKCENVLPYASPAVIFLAHLDSILLDVNANQDPEAIKLQKSINFEMSKLLDDFTFKFPGTTFVGSVNNIDNVPSSFRSHMRFEILVPVPSEAQRLRIFQWYLSSHELNRDVQQKVPVSYMDNISFSSLSSYSAGLTPLDIKSIVETARMTATARFYQESKKCGWLPQSILITQEDLSKATSKARNEFSVSIGAPQIPNVTWDDIGGIDFVKGEILDTIDMPLKHPELFTSGMKKRSGILFYGPPGTGKTLMAKAIATNFSLNFFSVKGPELLNMYIGESEANVRRVFQKAREAKPCVIFFDQIDSVAPKRGNQGDSGGVMDRIVSQLLAELDGMSTDADGVFVIGATNRPDLLDEALLRPGRFDKLLYLGIPDTDTKQLNILEALTRKFVLDNDVKLIELAKLCPFNYTGADFYALCSDAMLNAMSRIARMVEKKVSQHNELTGENISTRRWFDKIATKEDTKVVVKMEDFLKAQEQLTPSVSRAELNHYEAVRANFEGA
notes: Pex6p of yeast with the Walker B mutation of the D2 domain; also called Pex6pWB; PEX6WB^E832Q; source: E. coli Tuner (DE3), co-purified with HisPex1pGST; not shown: His6, N-terminal, kept
